Bridge positions count the residues as written; N and C are the ends. Side chains are listed from the residue outwards. Ends that are not written are not given here. * marks the point of attachment. Hexanoyl(6-maleimido) = O=C1C=CC(=O)N1CCCCCC(=O)*; reversible prodrug linker = not defined here
Columns and labels:
[1] = molecular target: T1, NPR-B receptor (natriuretic peptide receptor B), endogenous on NIH-3T3 cells (murine (endogenous in NIH-3T3 cells), UniProt Q6VVW5 17-1047); assay: cell-based or functional assay
T1 sequence (looked up): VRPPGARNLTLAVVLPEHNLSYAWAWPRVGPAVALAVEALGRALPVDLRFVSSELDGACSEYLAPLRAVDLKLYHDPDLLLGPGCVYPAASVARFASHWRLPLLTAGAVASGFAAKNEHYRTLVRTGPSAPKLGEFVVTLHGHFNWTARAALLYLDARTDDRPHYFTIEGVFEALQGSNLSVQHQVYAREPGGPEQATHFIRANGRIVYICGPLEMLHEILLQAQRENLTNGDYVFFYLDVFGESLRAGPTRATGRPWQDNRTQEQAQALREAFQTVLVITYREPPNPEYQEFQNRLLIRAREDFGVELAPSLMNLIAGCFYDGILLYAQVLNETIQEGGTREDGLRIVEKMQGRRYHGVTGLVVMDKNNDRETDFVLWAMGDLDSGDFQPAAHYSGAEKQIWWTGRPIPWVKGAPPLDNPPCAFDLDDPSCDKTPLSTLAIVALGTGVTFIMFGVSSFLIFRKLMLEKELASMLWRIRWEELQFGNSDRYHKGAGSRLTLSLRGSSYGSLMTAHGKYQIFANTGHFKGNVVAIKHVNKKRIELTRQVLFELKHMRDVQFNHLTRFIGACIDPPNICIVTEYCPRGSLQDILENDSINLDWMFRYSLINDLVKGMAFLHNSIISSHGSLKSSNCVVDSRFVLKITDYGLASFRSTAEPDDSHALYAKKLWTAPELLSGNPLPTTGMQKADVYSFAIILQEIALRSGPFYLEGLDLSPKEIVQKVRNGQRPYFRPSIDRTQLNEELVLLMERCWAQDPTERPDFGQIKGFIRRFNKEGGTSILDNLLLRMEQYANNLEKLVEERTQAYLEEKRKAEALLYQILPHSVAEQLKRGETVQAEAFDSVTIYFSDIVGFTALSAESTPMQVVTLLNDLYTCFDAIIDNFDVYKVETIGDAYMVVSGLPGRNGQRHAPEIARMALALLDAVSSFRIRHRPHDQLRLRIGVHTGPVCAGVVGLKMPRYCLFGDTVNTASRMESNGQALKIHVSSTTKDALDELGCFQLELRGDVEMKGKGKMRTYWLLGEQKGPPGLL

[2] = molecular target: T2, NPR-C (natriuretic peptide receptor C), expressed on Hek293 cells (UniProt P17342 27-541, limits assumed); assay: competition with fluorescein-labelled CNP-38 27d on NPR-C expressing Hek293 cells, flow cytometry (MFI), 4PL fit; ratio to CNP-38
T2 construct: whole, on cells
T2 sequence (looked up): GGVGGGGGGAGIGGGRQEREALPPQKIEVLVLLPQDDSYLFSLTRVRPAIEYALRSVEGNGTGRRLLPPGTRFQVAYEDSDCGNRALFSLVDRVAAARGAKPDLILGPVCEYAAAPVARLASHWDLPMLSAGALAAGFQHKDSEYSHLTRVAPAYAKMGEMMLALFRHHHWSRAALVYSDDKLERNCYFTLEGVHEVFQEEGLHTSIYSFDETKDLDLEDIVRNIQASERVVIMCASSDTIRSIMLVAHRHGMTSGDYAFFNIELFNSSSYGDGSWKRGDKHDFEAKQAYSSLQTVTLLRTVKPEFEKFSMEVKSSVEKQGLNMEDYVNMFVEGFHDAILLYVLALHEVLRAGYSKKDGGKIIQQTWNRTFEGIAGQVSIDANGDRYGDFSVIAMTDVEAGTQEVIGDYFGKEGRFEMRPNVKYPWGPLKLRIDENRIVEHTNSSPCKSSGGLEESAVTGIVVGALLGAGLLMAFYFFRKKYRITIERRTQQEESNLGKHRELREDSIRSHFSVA
Description: For the NPR—C affinity assay, a NPR—C expressing Hek293 cell line was developed. The coding region of the NPR—C sequence (BC131540) was cloned into a lentiviral vector under CMV promoter for constitutive receptor expression. A bicistronic element located on the vector for puromycin resistence was used as eukaryotic selection marker. After transduction, stably growing cell pools were subjected to qRT-PCR for confirmation of receptor mRNA-expression compared to parental Hek293 cells. An NPR—C-expressing cell pool was expanded and frozen as master cell bank for CNP sample testing.
For the assay, growing cells were trypsinized from the cell flask bottom, counted, and seeded in a 96-well plate (1.5×10⁵/well) and centrifuged. Supernatants were discarded. CNP standard and sample were serially diluted over 9 steps in PBS 0.2% BSA and transferred to the micro plate in duplicates and mixed with cells. […] Subsequently, cells were analyzed by flow cytometry using mean fluorescence intensity of the FITC channel (FL1, Beckman Coulter FC500MPL) as read out.

[3] = molecular target: T1, NPR-B receptor (natriuretic peptide …); assay: cell-based or functional assay; remark: listed apart in the source

Row | Binder | EC50 compound/EC50 CNP-38 (residual NPR-B activity, cGMP production in NIH-3T3 cells) [1] [ratio] | IC50 of PEGylated CNP-38/IC50 CNP-38 [2] [ratio] | EC50 compound/EC50 CNP-38 (cGMP production in NIH-3T3 cells) [3] [ratio]
1 | LQEHPNARKYKGANKKGLSKGCFGLKLDRIGSMSGLGC (5 kDa PEG stably attached through maleimidohexanoyl/thiol to the side chain of Lys26 (ring lysine); disulfide Cys22-Cys38) [Permanent Lys26 CNP-38 PEG 5 kDa conjugate 19e] | > 100 | 1.1 | 
2 | LQEHPNARKYKGANKKGLSKGCFGLKLDRIGSMSGLGC (not fully specified; Lys26 side chain attached through a reversible Asn-linker (maleimidohexanoyl) to a thiol arm of 4-arm-thiol-PEG 40 kDa; disulfide Cys22-Cys38) [Conjugate 31d (4-arm PEG 40 kDa, Lys26 CNP-38, reversible conjugate)] |  | 1.7 | 
3 | LQEHPNARKYKGANKKGLSKGCFGLKLDRIGSMSGLGC (disulfide 22-38; not fully specified (residue 26), This is a reversible conjugate with an in vitro release half-life of 8.5 d) [Reversible Lys26 CNP-38 PEG2x20 kDa conjugate 10f] | > 100 | 12 | 
4 | LQEHPNARKYKGANKKGLSKGCFGLKLDRIGSMSGLGC (disulfide 22-38; not fully specified (residue 26)) [Permanent Lys26 CNP-38 PEG4x10 kDa conjugate 12g] | > 100 | 143 | 
5 | LQEHPNARKYKGANKKGLSKGCFGLKLDRIGSMSGLGC (disulfide 22-38) |  |  | 1
6 | LQEHPNARKYKGANKKGLSKGCFGLK([reversible prodrug linker-4x10 kDa PEG])LDRIGSMSGLGC (disulfide 22-38; reading uncertain, This is a reversible conjugate with an in vitro release half-life of 9.5 d) [Reversible Lys26 CNP-38 PEG4x10 kDa conjugate 11i] | > 100 | 91 | 
7 | {PEG 5 kDa-Hexanoyl(6-maleimido)}-LQEHPNARKYKGANKKGLSKGCFGLKLDRIGSMSGLGC (disulfide 22-38) [Permanent N-terminal CNP-38 PEG 5 kDa conjugate 15e] | > 5 | 0.53 | 

Source: patent publication US20260183370A1 (ASCENDIS PHARMA GROWTH DISORDERS A S, published 2026)
